Reference: the supplement of paper PMC7125110
± gives the standard error. Fewer inactive variants are shown than the library holds.

B1: glmS ribozyme (parent)
chain: AUAAAAGCGCCAGAACUACAGAAAUGUAGUUGACGAGGAGGAGGUUUAUCGAAUUUUCGGCGGAUGCCUCCAAA

Columns and labels:
Conditions in all cases: with glucosamine-6-phosphate
glucosamine-6-phosphate [1] = variants of: B1; test: self-cleavage kobs at 160 uM GlcN6P; higher = faster cleavage; RNA array
How it was run: (§1)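 Glucosamine-6-phosphate in HEPES/KCl/Mg(OAc)2 buffer, at 40 μM to 10 mM, was flowed over barcoded ribozyme variants transcribed in situ by E. coli RNA polymerase on sequenced MiSeq chips. Tracking was through a hybridised Cy3 probe at 37 °C. kobs, kcat and KM came from exponential decay fits and weighted Michaelis–Menten fits of normalised per-tile medians.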

glucosamine-6-phosphate [2] = variants of: B1; test: self-cleavage kobs at 640 uM GlcN6P; higher = faster cleavage; RNA array
How it was run: as §1

glucosamine-6-phosphate [3] = variants of: B1; test: self-cleavage kobs at 2500 uM GlcN6P; higher = faster cleavage; RNA array
How it was run: as §1

glucosamine-6-phosphate [4] = variants of: B1; test: self-cleavage kobs at 10000 uM GlcN6P; higher = faster cleavage; RNA array
How it was run: as §1

Variant	self-cleavage kobs at 160 uM GlcN6P (glucosamine-6-phosphate [1]) [s⁻¹]	self-cleavage kobs at 640 uM GlcN6P (glucosamine-6-phosphate [2]) [s⁻¹]	self-cleavage kobs at 2500 uM GlcN6P (glucosamine-6-phosphate [3]) [s⁻¹]	self-cleavage kobs at 10000 uM GlcN6P (glucosamine-6-phosphate [4]) [s⁻¹]
A14G A33C C70A	< 1e-05			
G13C C58U G59U	< 1e-05			
G32U A39G		0.0002 ± 3.6e-05	0.000485 ± 0.00015	
C11U A33C A53U	< 1e-05	< 1e-05		
C10A A39U U69G	< 1e-05	< 1e-05	< 1e-05	
G13A G35C C71U	< 1e-05	< 1e-05		
C34A A42G G66U	< 1e-05	< 1e-05	< 1e-05	
C16U C58A	0.000528 ± 0.00025	0.000131 ± 2.7e-05	0.000305 ± 6.1e-05	0.00094 ± 0.00015
C34G G59C	< 1e-05	< 1e-05		< 1e-05
A15C A33G G44A U47C G62A	< 1e-05			
C34G U49G A53G G63C	< 1e-05	< 1e-05		
G9U C16U U57G C68U	< 1e-05	< 1e-05		
A15G A36U C50A G60A	< 1e-05	< 1e-05		
C11A A12U C16U C70U		0.00025 ± 7.2e-05	0.000524 ± 0.00013	
G7U C16U	< 1e-05			
A33U C34U C71G		< 1e-05		
G9C U56A	< 1e-05	< 1e-05	< 1e-05	
C8G G38A A48U C61U	< 1e-05			
A39C U69A	< 1e-05	< 1e-05		
U30G U49C		< 1e-05	< 1e-05	
A14G G51U	< 1e-05			
U30C G41C U49G G51U C58A	< 1e-05			
G7A U57A	< 1e-05	< 1e-05	< 1e-05	< 1e-05

Variant	self-cleavage kobs at 160 uM GlcN6P (glucosamine-6-phosphate [1]) [s⁻¹]	self-cleavage kobs at 640 uM GlcN6P (glucosamine-6-phosphate [2]) [s⁻¹]	self-cleavage kobs at 2500 uM GlcN6P (glucosamine-6-phosphate [3]) [s⁻¹]	self-cleavage kobs at 10000 uM GlcN6P (glucosamine-6-phosphate [4]) [s⁻¹]
U49A U56C A64U	< 1e-05	< 1e-05	< 1e-05	
C10G G66C	< 1e-05	< 1e-05		< 1e-05
G7A A33U G44U	< 1e-05		< 1e-05	
G13C U45C U46C C68A C70G	< 1e-05		< 1e-05	
C11A A42G G63A	< 1e-05	< 1e-05		
A12U G44U U45C C70G		< 1e-05		
C11G C16A U31C A42U		< 1e-05		
C16U G29C C50G	0.000111 ± 3.4e-05		6.6e-05 ± 2.7e-05	
G38A G44A C50U	< 1e-05	< 1e-05		
G9U A42C	< 1e-05		< 1e-05	
C8G G35U G37A A48U C67U		< 1e-05	< 1e-05	
G7C C70G	< 1e-05	< 1e-05	< 1e-05	
G7C C10G U45C	< 1e-05			
A12C A14U U30A U69G		9e-05 ± 3.5e-05		
C50G U65C	4.48e-05 ± 1.6e-05	0.000255 ± 0.0001	4.37e-05 ± 2.1e-05	
G13U A33U U57C	< 1e-05	< 1e-05		
C16A A33G	< 1e-05			< 1e-05
G41U C58U	< 1e-05	< 1e-05		
G32C C71U	< 1e-05		2.98e-05 ± 1.2e-05	9.6e-05 ± 1e-05
U17G	0.00191 ± 0.00076	0.00535 ± 0.0016		
A6G G37C G43A U46C		< 1e-05		
G32C U46A C50A A52U	< 1e-05	< 1e-05	< 1e-05	
A14G G66U C67G		0.000361 ± 7.9e-05	0.00105 ± 0.00021	

Variant	self-cleavage kobs at 160 uM GlcN6P (glucosamine-6-phosphate [1]) [s⁻¹]	self-cleavage kobs at 640 uM GlcN6P (glucosamine-6-phosphate [2]) [s⁻¹]	self-cleavage kobs at 2500 uM GlcN6P (glucosamine-6-phosphate [3]) [s⁻¹]	self-cleavage kobs at 10000 uM GlcN6P (glucosamine-6-phosphate [4]) [s⁻¹]
A42C A64G C68U	< 1e-05	< 1e-05	< 1e-05	
G9C G38A C70U	< 1e-05	< 1e-05	< 1e-05	
G7U U46A C50G G60A U65G U69A	0.000502 ± 0.00021			
G13U A15U A36C A42G G59C C67G	< 1e-05			
A36G C61G	< 1e-05	< 1e-05		< 1e-05
C58A G60U C61U C71A	< 1e-05		< 1e-05	
G29A A52C	< 1e-05	< 1e-05		< 1e-05
A52G C68G U69C	5.98e-05 ± 2.7e-05			
A14U U47G C68G	7.2e-05 ± 2.9e-05	0.000125 ± 2.8e-05	5.08e-05 ± 2.3e-05	
C11G A12G U45G U47A C71G		< 1e-05	< 1e-05	
G37U G38U C68A		0.00155 ± 0.00045		
C8A A42U U45G	< 1e-05	< 1e-05	< 1e-05	
C11U A14C A39G U69A	< 1e-05			
A6C G37C U65A	< 1e-05	< 1e-05	< 1e-05	
G43U C50G C70G		< 1e-05		
C11A A14C G35A C50G C71G	0.000211 ± 3.9e-05	0.000433 ± 0.00014	0.000131 ± 4.3e-05	
C8G G35A C70G		< 1e-05		
G29A G40U G41C		< 1e-05		
U31C G35C	< 1e-05	< 1e-05	< 1e-05	< 1e-05
G40U G60A C70A	< 1e-05		< 1e-05	
G7A G35U	< 1e-05	< 1e-05		< 1e-05
U31G C70A		0.000129 ± 2.6e-05	9.72e-05 ± 2.7e-05	0.000372 ± 0.00014
A15U U31C A39C		4.66e-05 ± 1.3e-05	0.000126 ± 2.4e-05	

Variant	self-cleavage kobs at 160 uM GlcN6P (glucosamine-6-phosphate [1]) [s⁻¹]	self-cleavage kobs at 640 uM GlcN6P (glucosamine-6-phosphate [2]) [s⁻¹]	self-cleavage kobs at 2500 uM GlcN6P (glucosamine-6-phosphate [3]) [s⁻¹]	self-cleavage kobs at 10000 uM GlcN6P (glucosamine-6-phosphate [4]) [s⁻¹]
G29U U30C A52U		< 1e-05	< 1e-05	
U57G C58A G63U	< 1e-05			
A12C G41C U49A	< 1e-05	< 1e-05	< 1e-05	
C34U G40U C71U	< 1e-05		< 1e-05	
A15G G29U C70G		0.000143 ± 5e-05	9.63e-05 ± 3.6e-05	
G13U G43U	< 1e-05	< 1e-05		< 1e-05
A36G G44A U55C U65G	< 1e-05	< 1e-05	< 1e-05	
G32U G51U G66A	< 1e-05	< 1e-05		
G35C G62U C67G C70U	< 1e-05			
C11U G44U G60A C61G	< 1e-05	< 1e-05	< 1e-05	< 1e-05
U45G C70G		0.000176 ± 7.2e-05	4.73e-05 ± 1.8e-05	0.000258 ± 6.7e-05
A48U G59C C68G		< 1e-05		
G44U C50U C71A	< 1e-05	< 1e-05		
G38C G60C C71G	< 1e-05	< 1e-05		
U47A G51A C71G		0.0001 ± 3.9e-05		
A14G G37A A52G		5.33e-05 ± 1.3e-05	9.21e-05 ± 2e-05	
U56A G60U	< 1e-05			
U30C A36C C50G G59C	0.000229 ± 9.7e-05			
G38A G44A G51U U54G		< 1e-05		
A48U G60U C68U	< 1e-05		< 1e-05	
C8A A53U G60U		< 1e-05	< 1e-05	
A36G U45C	< 1e-05	< 1e-05	< 1e-05	
A36C G44C	< 1e-05		< 1e-05	< 1e-05

Variant	self-cleavage kobs at 160 uM GlcN6P (glucosamine-6-phosphate [1]) [s⁻¹]	self-cleavage kobs at 640 uM GlcN6P (glucosamine-6-phosphate [2]) [s⁻¹]	self-cleavage kobs at 2500 uM GlcN6P (glucosamine-6-phosphate [3]) [s⁻¹]	self-cleavage kobs at 10000 uM GlcN6P (glucosamine-6-phosphate [4]) [s⁻¹]
A12G G41U C50U	< 1e-05	< 1e-05	< 1e-05	
A42C G63U	< 1e-05			< 1e-05
A42U U47A C70G	< 1e-05	< 1e-05		
G35U G66C	< 1e-05	< 1e-05	< 1e-05	
C34U U56C G62U C71A	< 1e-05		< 1e-05	
U45C C71G		8.57e-05 ± 2.5e-05	5.59e-05 ± 2.2e-05	0.000305 ± 6.9e-05
G7U G66A	< 1e-05			< 1e-05
A12U A14U A15U	0.000236 ± 5.9e-05	0.00051 ± 0.00013	0.00219 ± 0.00059	
G60C C61G	< 1e-05	< 1e-05	< 1e-05	
A6C A53U G63A	< 1e-05	< 1e-05	< 1e-05	
U2C U31C		0.000805 ± 0.00025		
G41U C50U	< 1e-05	< 1e-05	< 1e-05	< 1e-05
A33U G43C	< 1e-05	< 1e-05	< 1e-05	
A42U A52C A53G	< 1e-05			
U30G A42G U56C	0.000132 ± 4.7e-05	0.000353 ± 0.00011	0.000492 ± 0.00016	
A12G G40U A53G C67U	< 1e-05	< 1e-05		
A33C G35A G51C	< 1e-05	< 1e-05	< 1e-05	
A14C C16U A36G		< 1e-05		
G9U C10A		< 1e-05	< 1e-05	
